Experimental data as given in publication PMC4831024.

Experiments:
Ku (Homo sapiens) = Ku (Homo sapiens) (UniProt P12956); settings: cited from earlier work
[1] = molecular target: GFP–WRN ΔX (deleted XLF-like motif) (human) (UniProt Q14191); experiment: co-IP; GFP-tagged proteins recovered on GFP-TRAP beads from transfected HEK293T extract (25 mM Tris-HCl pH 7.5, 150 mM NaCl, 10% glycerol, 0.5% Triton X-100, 1 mM DTT), 1 h at 4 °C; immunoblot for GFP, Ku80 and DNA–PKcs; Ku quantified by ImageJ relative to wild-type WRN
Chain of GFP–WRN ΔX (deleted XLF-like motif) (human) (Q14191 whole entry, stated change not applied): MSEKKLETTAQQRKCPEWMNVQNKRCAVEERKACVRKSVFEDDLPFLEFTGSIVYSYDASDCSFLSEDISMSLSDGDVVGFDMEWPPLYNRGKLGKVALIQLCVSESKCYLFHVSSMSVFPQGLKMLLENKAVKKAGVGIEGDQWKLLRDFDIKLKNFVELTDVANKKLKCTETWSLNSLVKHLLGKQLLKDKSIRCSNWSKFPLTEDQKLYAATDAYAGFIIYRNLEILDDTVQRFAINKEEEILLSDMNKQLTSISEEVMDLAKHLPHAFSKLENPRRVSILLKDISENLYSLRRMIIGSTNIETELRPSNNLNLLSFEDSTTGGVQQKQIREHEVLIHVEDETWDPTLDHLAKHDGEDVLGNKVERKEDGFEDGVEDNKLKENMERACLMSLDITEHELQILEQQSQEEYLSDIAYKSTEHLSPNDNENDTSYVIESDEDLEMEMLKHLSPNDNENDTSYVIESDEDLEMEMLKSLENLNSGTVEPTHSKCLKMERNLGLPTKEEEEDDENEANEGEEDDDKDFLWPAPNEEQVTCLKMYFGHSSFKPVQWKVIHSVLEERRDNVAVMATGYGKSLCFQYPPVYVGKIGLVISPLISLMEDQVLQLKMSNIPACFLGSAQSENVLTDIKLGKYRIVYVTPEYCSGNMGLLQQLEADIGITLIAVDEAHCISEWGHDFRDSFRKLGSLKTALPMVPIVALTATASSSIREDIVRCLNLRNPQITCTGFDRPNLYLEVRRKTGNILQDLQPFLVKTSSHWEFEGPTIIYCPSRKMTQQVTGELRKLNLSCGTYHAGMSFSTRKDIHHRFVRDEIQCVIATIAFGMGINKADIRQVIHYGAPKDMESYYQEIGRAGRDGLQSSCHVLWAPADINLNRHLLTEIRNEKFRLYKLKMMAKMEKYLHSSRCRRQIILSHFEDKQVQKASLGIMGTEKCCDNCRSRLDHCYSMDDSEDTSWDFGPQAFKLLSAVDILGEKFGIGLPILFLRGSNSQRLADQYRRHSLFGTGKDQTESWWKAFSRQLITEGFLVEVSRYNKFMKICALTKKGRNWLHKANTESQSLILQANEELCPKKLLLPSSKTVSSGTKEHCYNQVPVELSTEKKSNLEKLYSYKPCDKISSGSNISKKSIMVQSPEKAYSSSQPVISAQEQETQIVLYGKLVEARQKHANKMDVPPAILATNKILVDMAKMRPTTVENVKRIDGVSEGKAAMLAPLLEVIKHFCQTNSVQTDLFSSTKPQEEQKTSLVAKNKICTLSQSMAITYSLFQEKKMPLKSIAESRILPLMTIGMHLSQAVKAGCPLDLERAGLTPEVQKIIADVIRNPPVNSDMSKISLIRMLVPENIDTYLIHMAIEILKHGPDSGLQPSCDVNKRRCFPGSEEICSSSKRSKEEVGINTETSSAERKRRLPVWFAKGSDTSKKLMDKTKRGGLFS

Chain of Ku80, endogenous (P13010 whole entry): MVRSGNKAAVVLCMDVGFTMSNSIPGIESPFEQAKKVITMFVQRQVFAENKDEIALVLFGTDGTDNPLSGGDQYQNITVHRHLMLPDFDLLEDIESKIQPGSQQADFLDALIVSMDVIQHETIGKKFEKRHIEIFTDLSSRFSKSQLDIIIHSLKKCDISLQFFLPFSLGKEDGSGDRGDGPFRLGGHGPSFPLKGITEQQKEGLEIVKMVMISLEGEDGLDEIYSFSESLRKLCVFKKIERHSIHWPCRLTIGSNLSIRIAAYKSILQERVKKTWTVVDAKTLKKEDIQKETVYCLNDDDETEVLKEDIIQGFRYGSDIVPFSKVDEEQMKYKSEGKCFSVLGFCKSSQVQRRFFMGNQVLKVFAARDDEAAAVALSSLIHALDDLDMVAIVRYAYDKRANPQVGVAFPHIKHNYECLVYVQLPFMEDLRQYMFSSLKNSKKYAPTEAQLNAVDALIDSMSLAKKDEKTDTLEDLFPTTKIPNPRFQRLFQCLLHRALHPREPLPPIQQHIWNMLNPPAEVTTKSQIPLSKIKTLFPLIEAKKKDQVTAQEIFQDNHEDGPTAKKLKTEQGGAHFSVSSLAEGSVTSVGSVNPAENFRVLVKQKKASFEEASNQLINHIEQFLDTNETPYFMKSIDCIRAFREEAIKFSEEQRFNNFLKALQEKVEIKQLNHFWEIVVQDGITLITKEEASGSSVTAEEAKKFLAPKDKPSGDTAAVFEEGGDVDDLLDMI
Chain of Ku (Homo sapiens) (P12956 2-609, chain 1 of 2): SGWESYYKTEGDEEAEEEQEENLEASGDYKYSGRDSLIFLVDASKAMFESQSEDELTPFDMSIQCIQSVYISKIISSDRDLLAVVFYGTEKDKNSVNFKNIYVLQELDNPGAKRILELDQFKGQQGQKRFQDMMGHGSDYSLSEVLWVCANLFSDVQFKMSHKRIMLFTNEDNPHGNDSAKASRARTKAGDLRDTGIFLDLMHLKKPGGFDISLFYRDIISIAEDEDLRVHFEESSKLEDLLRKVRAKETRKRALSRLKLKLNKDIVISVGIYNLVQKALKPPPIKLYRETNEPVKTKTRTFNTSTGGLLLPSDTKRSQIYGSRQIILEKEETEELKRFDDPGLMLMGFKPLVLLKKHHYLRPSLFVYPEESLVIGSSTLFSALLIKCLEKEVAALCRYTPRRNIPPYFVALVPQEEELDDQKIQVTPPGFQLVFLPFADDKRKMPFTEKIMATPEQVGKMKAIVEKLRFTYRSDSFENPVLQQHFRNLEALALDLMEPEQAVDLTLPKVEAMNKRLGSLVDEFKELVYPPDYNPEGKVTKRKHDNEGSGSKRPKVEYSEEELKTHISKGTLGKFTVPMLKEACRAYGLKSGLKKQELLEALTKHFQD
Chain of Ku (Homo sapiens) (P13010 2-732, chain 2 of 2, further chain): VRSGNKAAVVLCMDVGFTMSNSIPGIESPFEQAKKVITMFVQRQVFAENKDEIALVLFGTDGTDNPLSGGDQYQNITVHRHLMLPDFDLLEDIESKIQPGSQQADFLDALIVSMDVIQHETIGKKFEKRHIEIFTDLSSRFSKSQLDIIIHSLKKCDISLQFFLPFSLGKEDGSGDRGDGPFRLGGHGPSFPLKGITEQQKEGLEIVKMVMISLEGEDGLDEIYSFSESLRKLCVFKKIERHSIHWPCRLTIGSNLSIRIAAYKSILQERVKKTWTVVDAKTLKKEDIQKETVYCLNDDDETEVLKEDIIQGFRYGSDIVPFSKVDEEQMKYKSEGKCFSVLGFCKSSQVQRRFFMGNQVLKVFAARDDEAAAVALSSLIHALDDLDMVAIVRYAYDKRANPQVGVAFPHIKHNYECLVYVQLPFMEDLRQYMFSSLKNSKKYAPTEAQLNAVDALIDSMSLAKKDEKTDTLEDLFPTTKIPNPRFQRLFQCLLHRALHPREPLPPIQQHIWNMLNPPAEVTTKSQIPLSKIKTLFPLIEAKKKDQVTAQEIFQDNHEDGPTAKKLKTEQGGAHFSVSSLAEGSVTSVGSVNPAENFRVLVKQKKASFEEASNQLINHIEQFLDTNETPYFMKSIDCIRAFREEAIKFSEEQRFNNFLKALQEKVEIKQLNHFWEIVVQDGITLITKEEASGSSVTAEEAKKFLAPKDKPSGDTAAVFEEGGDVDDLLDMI

percent reduction of Ku co-precipitated, relative to wild-type GFP-WRN [1] [%]	Substance	Kd (Ku (Homo sapiens)) [nM]
–	APLF KBM (from UniProt Q8IW19)	600
30	Ku80, endogenous (from UniProt P13010 1-732) (natural protein)	–
